Data reported in the supplement of paper PMC9112550, “Optimization of the antimicrobial peptide Bac7 by deep mutational scanning” (BMC Biology, 2022).

tested on: Escherichia coli TOP10; experiment: shrunken log2 fold change of peptide-encoding DNA abundance (4.5 h post-induction vs induction); higher = less antimicrobial activity (less host growth inhibition); conditions: time post-induction: 4.5 h; library: site-saturation at positions 5, 18, 19, 20
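Also: peptides expressed intracellularly from a pBAD plasmid library in pooled LB shake-flask culture, induced with 0.3% L-arabinose, DNA abundance read by NGS, three biological replicates, DESeq2 with apeglm shrinkage.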

Sequence | shrunken log2 fold change
RRIRTRPPRLPRPRPRPAWRPRP | 0.594
RRIRPRPPRLPRPRPRPGPIPRP | 0.148
RRIRDRPPRLPRPRPRPHHSPRP | -1.11
RRIRFRPPRLPRPRPRPPGNPRP | 0.0667
RRIRNRPPRLPRPRPRPFMQPRP | -0.194
RRIRRRPPRLPRPRPRPQMFPRP | -0.25
RRIRSRPPRLPRPRPRPHYEPRP | -0.573
RRIRCRPPRLPRPRPRPNAIPRP | 0.0905
RRIRCRPPRLPRPRPRPSTIPRP | 0.255
RRIRKRPPRLPRPRPRPRCNPRP | 0.196
RRIRTRPPRLPRPRPRPEITPRP | -0.0572
RRIRHRPPRLPRPRPRPNMGPRP | -0.0579
RRIRFRPPRLPRPRPRPTYCPRP | -0.339
RRIRFRPPRLPRPRPRPCWIPRP | -0.354
RRIRIRPPRLPRPRPRPHYRPRP | -0.204
RRIRTRPPRLPRPRPRPNATPRP | 0.469
RRIRNRPPRLPRPRPRPSCCPRP | -0.318
RRIRMRPPRLPRPRPRPCWAPRP | 0.168
RRIRGRPPRLPRPRPRPDKPPRP | 0.415
RRIRLRPPRLPRPRPRPRWQPRP | 0.217
RRIRDRPPRLPRPRPRPQALPRP | 0.214
RRIRDRPPRLPRPRPRPHQWPRP | 0.031
RRIRHRPPRLPRPRPRPTREPRP | 0.0175
RRIRNRPPRLPRPRPRPMIEPRP | 0.00437
RRIRRRPPRLPRPRPRPVHKPRP | 0.092

Sequence | shrunken log2 fold change
RRIRSRPPRLPRPRPRPKFHPRP | -0.441
RRIRIRPPRLPRPRPRPHSEPRP | -0.13
RRIRQRPPRLPRPRPRPKRIPRP | -0.0308
RRIRFRPPRLPRPRPRPVGEPRP | 0.29
RRIRVRPPRLPRPRPRPNRHPRP | -0.195
RRIRGRPPRLPRPRPRPADCPRP | 0.349
RRIRNRPPRLPRPRPRPIRMPRP | -0.00776
RRIRIRPPRLPRPRPRPWMNPRP | -0.238
RRIRKRPPRLPRPRPRPGFEPRP | 0.32
RRIRCRPPRLPRPRPRPMIEPRP | -0.117
RRIRMRPPRLPRPRPRPNMSPRP | 0.0106
RRIRNRPPRLPRPRPRPSQGPRP | -0.154
RRIRIRPPRLPRPRPRPHYWPRP | -0.85
RRIRHRPPRLPRPRPRPTICPRP | -0.41
RRIRSRPPRLPRPRPRPNQPPRP | 0.0618
RRIRTRPPRLPRPRPRPKDMPRP | -0.0311
RRIRGRPPRLPRPRPRPAPYPRP | 0.218
RRIRNRPPRLPRPRPRPYLEPRP | -0.00618
RRIRERPPRLPRPRPRPRREPRP | 0.0467
RRIRHRPPRLPRPRPRPLYLPRP | -0.4
RRIRARPPRLPRPRPRPDIGPRP | 0.0329
RRIRLRPPRLPRPRPRPRNAPRP | -0.0271
RRIRERPPRLPRPRPRPTQNPRP | 0.262
RRIRHRPPRLPRPRPRPYGTPRP | -1.41
RRIRERPPRLPRPRPRPQLRPRP | -0.00323

Sequence | shrunken log2 fold change
RRIRHRPPRLPRPRPRPSKKPRP | 0.0943
RRIRMRPPRLPRPRPRPCWYPRP | 0.092
RRIRFRPPRLPRPRPRPMNHPRP | -0.327
RRIRPRPPRLPRPRPRPWVCPRP | 0.23
RRIRYRPPRLPRPRPRPLAKPRP | 0.19
RRIRERPPRLPRPRPRPAHCPRP | 0.0518
RRIRDRPPRLPRPRPRPQDMPRP | -0.628
RRIRQRPPRLPRPRPRPGWAPRP | 0.113
RRIRARPPRLPRPRPRPIEQPRP | 0.124
RRIRWRPPRLPRPRPRPKWAPRP | 0.507
RRIRIRPPRLPRPRPRPCSVPRP | -0.466
RRIRPRPPRLPRPRPRPHCGPRP | -0.168
RRIRERPPRLPRPRPRPWIHPRP | 0.105
RRIRRRPPRLPRPRPRPYDYPRP | 0.00863
RRIRMRPPRLPRPRPRPWAMPRP | 0.0684
RRIRHRPPRLPRPRPRPYQIPRP | -0.484
RRIRYRPPRLPRPRPRPDASPRP | -0.00663
RRIRARPPRLPRPRPRPGFSPRP | 0.329
RRIRPRPPRLPRPRPRPTNPPRP | 0.174
RRIRARPPRLPRPRPRPVHSPRP | 0.0799
RRIRARPPRLPRPRPRPWSNPRP | 0.0711
RRIRVRPPRLPRPRPRPDSNPRP | -0.159
RRIRSRPPRLPRPRPRPFSNPRP | -0.218
RRIRYRPPRLPRPRPRPANYPRP | -0.0328
RRIRLRPPRLPRPRPRPCGGPRP | 0.091

Sequence | shrunken log2 fold change
RRIRQRPPRLPRPRPRPDWQPRP | 0.0854
RRIRKRPPRLPRPRPRPYRMPRP | -0.329
RRIRMRPPRLPRPRPRPYIYPRP | -0.384
RRIRNRPPRLPRPRPRPQDFPRP | -0.0385
RRIRDRPPRLPRPRPRPLSQPRP | 0.483
RRIRARPPRLPRPRPRPREIPRP | 0.865
RRIRVRPPRLPRPRPRPRPQPRP | 0.365
RRIRDRPPRLPRPRPRPQKYPRP | -0.432
RRIRNRPPRLPRPRPRPEFNPRP | -0.0322
RRIRVRPPRLPRPRPRPFQRPRP | 0.0825
RRIRNRPPRLPRPRPRPDSCPRP | -0.00192
RRIRSRPPRLPRPRPRPCNHPRP | -0.361
RRIRQRPPRLPRPRPRPDNKPRP | -0.532
RRIRNRPPRLPRPRPRPYIWPRP | -0.588
RRIRPRPPRLPRPRPRPVMIPRP | -0.251
RRIRCRPPRLPRPRPRPNMLPRP | -0.398
RRIRPRPPRLPRPRPRPHWRPRP | 0.0957
RRIRGRPPRLPRPRPRPPSGPRP | 0.766
RRIRLRPPRLPRPRPRPMNMPRP | -0.0334
RRIRKRPPRLPRPRPRPKCCPRP | 0.0349
RRIRVRPPRLPRPRPRPERAPRP | 0.264
RRIRDRPPRLPRPRPRPQRNPRP | -0.0378
RRIRHRPPRLPRPRPRPHVCPRP | 0.00854
RRIRNRPPRLPRPRPRPKPHPRP | 0.174
RRIRYRPPRLPRPRPRPKENPRP | -0.0772

Sequence | shrunken log2 fold change
RRIRDRPPRLPRPRPRPTALPRP | 0.573
RRIRGRPPRLPRPRPRPCYNPRP | 0.0333
RRIRPRPPRLPRPRPRPMMFPRP | -0.213
RRIRFRPPRLPRPRPRPVTMPRP | -0.295
RRIRARPPRLPRPRPRPRIEPRP | 0.309
RRIRRRPPRLPRPRPRPEIDPRP | -0.00263
RRIRERPPRLPRPRPRPHDWPRP | -0.0393
RRIRVRPPRLPRPRPRPDYDPRP | 0.00442
RRIRERPPRLPRPRPRPKWKPRP | -0.0193
RRIRRRPPRLPRPRPRPFPIPRP | 0.199
RRIRCRPPRLPRPRPRPFCDPRP | -0.501
RRIRARPPRLPRPRPRPEFKPRP | 0.0365
RRIRRRPPRLPRPRPRPFRYPRP | 0.292
RRIRTRPPRLPRPRPRPNNLPRP | -0.252
RRIRGRPPRLPRPRPRPREHPRP | 0.783
RRIRFRPPRLPRPRPRPWQPPRP | 0.0512
RRIRFRPPRLPRPRPRPKATPRP | -0.061
RRIRGRPPRLPRPRPRPCLPPRP | -0.0995
RRIRLRPPRLPRPRPRPNARPRP | 0.1
RRIRQRPPRLPRPRPRPRHRPRP | 0.16
RRIRDRPPRLPRPRPRPGCIPRP | -0.158
RRIRRRPPRLPRPRPRPCARPRP | 0.395
RRIRLRPPRLPRPRPRPDARPRP | 0.0258
RRIRWRPPRLPRPRPRPRYEPRP | 0.0756
RRIRQRPPRLPRPRPRPHAYPRP | -0.352
